From patent CN111690061A (EASTERN THEATER COMMAND DISEASE CONTROL AND PREVENTION …, dated 2020)

Target: T1, 鼠疫耶尔森菌抗原F1 (重组F1蛋白) (Yersinia pestis, UniProt P26948 22-170)
T1 construct: also called F1抗原; 鼠疫抗原F1
Assay: immunological detection (免疫学检测)

T1 sequence (P26948 22-170 limits assumed): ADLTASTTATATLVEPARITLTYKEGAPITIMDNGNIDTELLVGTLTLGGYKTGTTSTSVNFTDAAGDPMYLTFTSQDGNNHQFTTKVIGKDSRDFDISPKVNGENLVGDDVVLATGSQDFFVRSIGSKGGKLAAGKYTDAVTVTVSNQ

B1: 人鼠嵌合单克隆抗体 hm YF202 (antibody, V domains shown)
VH: ESGPDLVKPSQSLSLTCTVTGYSITSGYSWHWIRQFPGNKLEWMGYIHYSGSTNYNPSLKSRISITRDTSKNQFFLQLNSVTTEDTATYYCARNYAMDYWGQGTLVTVS
VL: DIVMTQSPKFMSTSVGDRVSVTCKASQNVGTNVAWYQQKPGQSPKALIYSASYRYSGVPDRFTGSGSGTDFTLTISNVQSEDLAEYFCQQYNSYPYTFGGGTKLEIKR
notes: also called 抗F1的人鼠嵌合单克隆抗体
**Q.** Does B1 bind?
**A.** binds
